Results from publication PMC2944823, “Structural Basis for the Secretion of EvpC: A Key Type VI Secretion System Protein from Edwardsiella tarda” (PLoS ONE, 2010).
Values joined by “and” are separate entries in the source; they are usually repeats but may differ in a detail not shown here. Identical values can stand only once.

Key:
[1] = molecular target: the molecule itself; assay: SEC; gel filtration (Hiload 16/60 Superdex 75) of EvpC wild type and mutants at 2 mg/ml; self-association, hexamer
[2] = molecular target: the molecule itself; assay: AUC; sedimentation velocity, ~2 mg/ml (methods: 2.5 mg/ml), 10 mM Tris-HCl pH 7.0, 200 mM NaCl, with and without DTT, 40,000 rpm, 20°C, absorbance at 280 nm, Sedfit; self-association, dimer and hexamer
[3] = molecular target: the molecule itself; assay: dynamic light scattering; DynaPro instrument, room temperature, EvpC at 6 mg/ml; polydispersity 5%

Protein	stoichiometry N [1]	stoichiometry N [2]	stoichiometry N [3]
EvpC C-terminal deletion mutant (EvpC M1-N160), K161 K162 K163 deleted (domain or fragment, EvpC, Edwardsiella tarda PPD130/91, residues M1-N160, lacking the C-terminal K161, K162 and K163; also called EvpC 1-160; C-terminal mutant; source: expressed) MAFDTYIKLDKVDGESTDDKHKKWIEVLGFAWGAGNECTMESGTQGLNTGKAMMSVLRVTKWMDCASVKLASAAVQGQNFPTLELEICTQAGDKFAFCIYKFTHVAVSSYQCSGATGGSDRPQETIDFAYKEVTWEYVPQDQNGKAGGKIGPEGWSLITN	6		
EvpC from Edwardsiella tarda PPD130/91, wild type, recombinant with 6His tag at C terminus (pETMevpC) (natural protein, selenomethionine (cells grown in defined M9 medium supplemented with 25 mg/L SelMet), EvpC, Hcp homolog of the type VI secretion system (EVP cluster), Edwardsiella tarda PPD130/91; evpC gene amplified from genomic DNA; crystal model holds Ala2 to Lys163; K161-K163 are called the C-terminal residues and the model ends at Lys163, so the whole protein (163 residues) is likely. pETM is a pET32 derivative; no other vector-derived residues are told; also called wild type EvpC; Hcp …) MAFDTYIKLDKVDGESTDDKHKKWIEVLGFAWGAGNECTMESGTQGLNTGKAMMSVLRVTKWMDCASVKLASAAVQGQNFPTLELEICTQAGDKFAFCIYKFTHVAVSSYQCSGATGGSDRPQETIDFAYKEVTWEYVPQDQNGKAGGKIGPEGWSLITNKKK		2 and 6	12
EvpC D4A E15A double mutant, 6His tag at C terminus (pETMevpC D4AE15A) (natural protein, EvpC, Edwardsiella tarda PPD130/91, with D4 and E15 substituted with Ala; The text speaks only of 'double' mutants for the gel filtration; source: expressed (pETM plasmid)) MAFATYIKLDKVDGASTDDKHKKWIEVLGFAWGAGNECTMESGTQGLNTGKAMMSVLRVTKWMDCASVKLASAAVQGQNFPTLELEICTQAGDKFAFCIYKFTHVAVSSYQCSGATGGSDRPQETIDFAYKEVTWEYVPQDQNGKAGGKIGPEGWSLITNKKK	6		
EvpC E15A E26A double mutant, 6His tag at C terminus (pETMevpC E15AE26A) (natural protein, EvpC, Edwardsiella tarda PPD130/91, with E15 and E26 substituted with Ala; The text speaks only of 'double' mutants for the gel filtration; source: expressed (pETM plasmid)) MAFDTYIKLDKVDGASTDDKHKKWIAVLGFAWGAGNECTMESGTQGLNTGKAMMSVLRVTKWMDCASVKLASAAVQGQNFPTLELEICTQAGDKFAFCIYKFTHVAVSSYQCSGATGGSDRPQETIDFAYKEVTWEYVPQDQNGKAGGKIGPEGWSLITNKKK	6		
EvpC D4A E15A E26A triple mutant (natural protein, EvpC, Edwardsiella tarda PPD130/91, with D4, E15 and E26 substituted with Ala; also called N-terminal triple mutant; N-terminal mutant; source: expressed) MAFATYIKLDKVDGASTDDKHKKWIAVLGFAWGAGNECTMESGTQGLNTGKAMMSVLRVTKWMDCASVKLASAAVQGQNFPTLELEICTQAGDKFAFCIYKFTHVAVSSYQCSGATGGSDRPQETIDFAYKEVTWEYVPQDQNGKAGGKIGPEGWSLITNKKK	6		
EvpC D4A E26A double mutant, 6His tag at C terminus (pETMevpC D4AE26A) (natural protein, EvpC, Edwardsiella tarda PPD130/91, with D4 and E26 substituted with Ala; The text speaks only of 'double' mutants for the gel filtration; source: expressed (pETM plasmid)) MAFATYIKLDKVDGESTDDKHKKWIAVLGFAWGAGNECTMESGTQGLNTGKAMMSVLRVTKWMDCASVKLASAAVQGQNFPTLELEICTQAGDKFAFCIYKFTHVAVSSYQCSGATGGSDRPQETIDFAYKEVTWEYVPQDQNGKAGGKIGPEGWSLITNKKK	6		
